The values that follow come from the array DNA melting data of Ke et al..

One may read the Tm as the temperature at which the thermal transition is half complete.

The data set is described as follows: melting temperature; melt of duplexes. Conditions: sodium 0.0675 M; strand 1 µM.
As for “CGACGTGCATAATGTGCTG+CAGCACATGTGGCACGTCG ((((((((...((((((((+))))))))...))))))))”, the Tm amounted to 51 °C.

Consider “CGACGTGCATTATGTGCTG+CAGCACATATAGCACGTCG ((((((((..(((((((((+)))))))))..))))))))”, for which the Tm was determined as 52.3 °C. Turning to “CGACGTGCCTTATGTGCTG+CAGCACATGAGGCACGTCG ((((((((((.((((((((+)))))))).))))))))))”, the Tm worked out at 59.4 °C. Under “CGACGTGCTATATGTGCTG+CAGCACATTGGGCACGTCG ((((((((...((((((((+))))))))...))))))))” stands 50.5 °C. For “CGACGTGCCATATGTGCTG+CAGCACATCGTGCACGTCG ((((((((...((((((((+))))))))...))))))))”, the midpoint of thermal melting (Tm) came to 44.2 °C. As for “CGACGTGCATGATGTGCTG+CAGCACATACAGCACGTCG ((((((((...((((((((+))))))))...))))))))”, the Tm worked out at 49.5 °C. Under “CGACGTGCCACATGTGCTG+CAGCACATGTTGCACGTCG ((((((((.((((((((((+)))))))))).))))))))” stands 57.4 °C; under “CGACGTGCATTATGTGCTG+CAGCACATCGCGCACGTCG ((((((((...((((((((+))))))))...))))))))”, 45.8 °C; under “CGACGTGCTATATGTGCTG+CAGCACATTTCGCACGTCG ((((((((.(.((((((((+)))))))).).))))))))”, 49 °C.

As for “CGACGTGCGATATGTGCTG+CAGCACATGTTGCACGTCG ((((((((.(.((((((((+)))))))).).))))))))”, the melting temperature (Tm) amounted to 54.6 °C. As to “CGACGTGCGAAATGTGCTG+CAGCACATTACGCACGTCG (((((((((.(((((((((+))))))))).)))))))))”, the Tm was found to be 58.6 °C.

As for “CGACGTGCTGAATGTGCTG+CAGCACATCTAGCACGTCG (((((((((..((((((((+))))))))..)))))))))”, the Tm stood at 53 °C. With “CGACGTGCGACATGTGCTG+CAGCACATCATGCACGTCG ((((((((...((((((((+))))))))...))))))))”, the melting temperature (Tm) was 49.1 °C. The same measure for “CGACGTGCACAATGTGCTG+CAGCACATGTGGCACGTCG ((((((((...((((((((+))))))))...))))))))”: 51.2 °C. The same measure for “CGACGTGCTTCATGTGCTG+CAGCACATACCGCACGTCG ((((((((...((((((((+))))))))...))))))))”: 47.3 °C; for “CGACGTGCTTCATGTGCTG+CAGCACATGATGCACGTCG ((((((((.((((((((((+)))))))))).))))))))”: 58.8 °C; for “CGACGTGCGTGATGTGCTG+CAGCACATGAAGCACGTCG ((((((((.(.((((((((+)))))))).).))))))))”: 54 °C. Consider “CGACGTGCGGGATGTGCTG+CAGCACATAAGGCACGTCG ((((((((...((((((((+))))))))...))))))))”, for which the Tm is 51.1 °C. Regarding “CGACGTGCTACATGTGCTG+CAGCACATGACGCACGTCG ((((((((..(((((((((+)))))))))..))))))))”, the Tm was found to be 50.8 °C. The same measure for “CGACGTGCTTGATGTGCTG+CAGCACATTGCGCACGTCG ((((((((...((((((((+))))))))...))))))))”: 48.1 °C. The same measure for “CGACGTGCCACATGTGCTG+CAGCACATCAGGCACGTCG (((((((((..((((((((+))))))))..)))))))))”: 53.2 °C; for “CGACGTGCGGTATGTGCTG+CAGCACATGCCGCACGTCG ((((((((((.((((((((+)))))))).))))))))))”: 63.4 °C; for “CGACGTGCTGCATGTGCTG+CAGCACATCTCGCACGTCG ((((((((...((((((((+))))))))...))))))))”: 49.2 °C. Under “CGACGTGCACGATGTGCTG+CAGCACATCGGGCACGTCG ((((((((.((((((((((+)))))))))).))))))))” stands 63.8 °C. Regarding “CGACGTGCCCGATGTGCTG+CAGCACATCACGCACGTCG ((((((((..(((((((((+)))))))))..))))))))”, the midpoint of thermal melting (Tm) was found to be 52.2 °C. The same measure for “CGACGTGCGCCATGTGCTG+CAGCACATAATGCACGTCG ((((((((...((((((((+))))))))...))))))))”: 48.6 °C; for “CGACGTGCACCATGTGCTG+CAGCACATTCGGCACGTCG ((((((((...((((((((+))))))))...))))))))”: 42.6 °C. As for “CGACGTGCCTGATGTGCTG+CAGCACATGTGGCACGTCG (((((((((..((((((((+))))))))..)))))))))”, the Tm was determined as 54.9 °C. Under “CGACGTGCCTAATGTGCTG+CAGCACATCCTGCACGTCG ((((((((...((((((((+))))))))...))))))))” stands 47.9 °C. As for “CGACGTGCGCCATGTGCTG+CAGCACATCTGGCACGTCG ((((((((...((((((((+))))))))...))))))))”, the Tm was found to be 47.4 °C.

Consider “CGACGTGCTGTATGTGCTG+CAGCACATCCTGCACGTCG ((((((((.(.((((((((+)))))))).).))))))))”, for which the Tm came to 51.5 °C. Take “CGACGTGCTGCATGTGCTG+CAGCACATGGAGCACGTCG (((((((((.(((((((((+))))))))).)))))))))”: the melting temperature (Tm) amounted to 61.2 °C. The same measure for “CGACGTGCGAGATGTGCTG+CAGCACATCCCGCACGTCG (((((((((.(((((((((+))))))))).)))))))))”: 60.3 °C; for “CGACGTGCTGGATGTGCTG+CAGCACATAATGCACGTCG ((((((((...((((((((+))))))))...))))))))”: 50.7 °C. On to “CGACGTGCCGAATGTGCTG+CAGCACATGCTGCACGTCG ((((((((.(.((((((((+)))))))).).))))))))”, for which the Tm turned out to be 50.8 °C. Under “CGACGTGCCCTATGTGCTG+CAGCACATCTGGCACGTCG (((((((((..((((((((+))))))))..)))))))))” stands 53.2 °C; under “CGACGTGCTTAATGTGCTG+CAGCACATTGCGCACGTCG ((((((((..(((((((((+)))))))))..))))))))”, 50.1 °C; under “CGACGTGCGCTATGTGCTG+CAGCACATAAGGCACGTCG ((((((((..(((((((((+)))))))))..))))))))”, 51.6 °C. For “CGACGTGCCCGATGTGCTG+CAGCACATTCCGCACGTCG ((((((((...((((((((+))))))))...))))))))”, the melting temperature (Tm) is 48.2 °C.

With “CGACGTGCTGGATGTGCTG+CAGCACATTATGCACGTCG ((((((((...((((((((+))))))))...))))))))”, the Tm was 52 °C. For the substance “CGACGTGCACAATGTGCTG+CAGCACATGGGGCACGTCG ((((((((.(.((((((((+)))))))).).))))))))”, the midpoint of thermal melting (Tm) is 55.2 °C.

With “CGACGTGCGAAATGTGCTG+CAGCACATACGGCACGTCG ((((((((...((((((((+))))))))...))))))))”, the Tm came out at 49 °C. Regarding “CGACGTGCTATATGTGCTG+CAGCACATGAAGCACGTCG (((((((((..((((((((+))))))))..)))))))))”, the Tm was found to be 53.2 °C. The same measure for “CGACGTGCTACATGTGCTG+CAGCACATCAAGCACGTCG (((((((((..((((((((+))))))))..)))))))))”: 50.6 °C; for “CGACGTGCACTATGTGCTG+CAGCACATCGAGCACGTCG ((((((((.(.((((((((+)))))))).).))))))))”: 46.7 °C; for “CGACGTGCTGTATGTGCTG+CAGCACATCATGCACGTCG ((((((((...((((((((+))))))))...))))))))”: 50.9 °C.

Regarding “CGACGTGCGGGATGTGCTG+CAGCACATATTGCACGTCG ((((((((...((((((((+))))))))...))))))))”, the midpoint of thermal melting (Tm) is 51.4 °C.
